Read-outs that look alike come from different tables or passages of the source.

Test [1] deals with T1, human Ang2 (human, UniProt O15123 19-496, limits assumed).
T1 construct: also called hAng2; human Angiopoietin2
T1 sequence (looked up): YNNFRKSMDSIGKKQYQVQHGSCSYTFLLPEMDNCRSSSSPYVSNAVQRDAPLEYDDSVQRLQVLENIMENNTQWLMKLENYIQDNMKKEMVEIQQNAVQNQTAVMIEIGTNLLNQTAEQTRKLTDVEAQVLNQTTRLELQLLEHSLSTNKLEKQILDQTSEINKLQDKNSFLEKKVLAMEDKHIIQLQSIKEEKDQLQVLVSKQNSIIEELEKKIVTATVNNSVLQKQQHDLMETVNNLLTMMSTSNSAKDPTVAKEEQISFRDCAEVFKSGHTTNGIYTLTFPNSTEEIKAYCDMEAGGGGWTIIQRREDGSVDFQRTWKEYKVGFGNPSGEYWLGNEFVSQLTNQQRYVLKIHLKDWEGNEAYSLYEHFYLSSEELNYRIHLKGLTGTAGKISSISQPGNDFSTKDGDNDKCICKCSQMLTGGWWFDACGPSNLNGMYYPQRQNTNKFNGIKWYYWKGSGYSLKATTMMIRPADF
The test can be described thus: competition ELISA hAng2/hTie2-Fc. The protocol:
(§1) This assay is also performed after incubation of the VHH with 0.5 μM human serum albumin.

The target of test [2] is T1, human Ang2. The test can be described thus: competition ELISA hAng2/hTie2-Fc, with 0.5 uM HSA [continued]. The protocol:
as §1

Test [3] addresses T2, cynomolgus Ang2 (cynomolgus).
T2 construct: also called cAng2; cyno Ang2
The test is described as follows: competition ELISA: cAng2 binding to cTie2. The procedure: as §1
Background: In an ELISA, binding on a coated surface is turned into a signal by an enzyme label.

The target of test [4] is T2, cynomolgus Ang2. The test can be described thus: competition ELISA: cAng2 binding to cTie2. The procedure:
as §1
This is another data set of the same source.

The target in test [5] is T3, mouse Ang2 (mouse, UniProt O35608 19-496, limits assumed).
T3 construct: also called mAng2
T3 sequence (looked up): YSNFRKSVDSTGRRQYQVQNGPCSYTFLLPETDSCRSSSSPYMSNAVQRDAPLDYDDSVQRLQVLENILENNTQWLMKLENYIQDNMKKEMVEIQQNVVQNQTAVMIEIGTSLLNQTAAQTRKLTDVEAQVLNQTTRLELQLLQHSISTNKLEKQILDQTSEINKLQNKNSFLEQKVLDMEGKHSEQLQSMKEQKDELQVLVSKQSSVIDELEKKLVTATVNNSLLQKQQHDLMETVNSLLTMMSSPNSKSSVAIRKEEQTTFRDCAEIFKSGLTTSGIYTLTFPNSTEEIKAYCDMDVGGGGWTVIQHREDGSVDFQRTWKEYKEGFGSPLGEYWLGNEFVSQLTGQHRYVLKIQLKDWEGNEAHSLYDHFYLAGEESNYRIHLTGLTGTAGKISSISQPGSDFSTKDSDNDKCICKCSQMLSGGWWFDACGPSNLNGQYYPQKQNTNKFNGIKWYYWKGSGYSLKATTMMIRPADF
The test is described as follows: competition ELISA: mAng2 binding to mTie2. The procedure:
as §1

Test [6] has as its target T3, mouse Ang2. The test can be described thus: competition ELISA: mAng2 binding to mTie2. The procedure:
as §1
The source holds these as a separate data set.

Test [7] addresses T4, mouse DLL4, full length, overexpressed on CHO or HEK293 cells (mouse, UniProt Q9JI71 27-686).
T4 construct: whole, on cells; also called CHO-mDLL4; CHO-mDII4
The test is described as follows: FMAT competition: labelled hNotch1-Fc on CHO-mDLL4 cells. An excerpt:
(§2) All calculations are based on the FL1_total signal which comprises the average of the fluorescence per well times the number of counts per well.

In test [8] the target is T5, human DLL4, full length, overexpressed on CHO or HEK293 cells (human, UniProt Q9NR61 27-685).
T5 construct: also called CHO-hDLL4; CHO-hDII4
The test can be described thus: FMAT competition: labelled hNotch1-Fc on CHO-hDLL4 cells.
Excerpt: as §2

The target of test [9] is T6, cynomolgus DLL4, full length, overexpressed on cells (cynomolgus, UniProt Q9NR61 27-685 (human entry)).
T6 construct: also called CHO-cDLL4; cDLL4
T6 chain: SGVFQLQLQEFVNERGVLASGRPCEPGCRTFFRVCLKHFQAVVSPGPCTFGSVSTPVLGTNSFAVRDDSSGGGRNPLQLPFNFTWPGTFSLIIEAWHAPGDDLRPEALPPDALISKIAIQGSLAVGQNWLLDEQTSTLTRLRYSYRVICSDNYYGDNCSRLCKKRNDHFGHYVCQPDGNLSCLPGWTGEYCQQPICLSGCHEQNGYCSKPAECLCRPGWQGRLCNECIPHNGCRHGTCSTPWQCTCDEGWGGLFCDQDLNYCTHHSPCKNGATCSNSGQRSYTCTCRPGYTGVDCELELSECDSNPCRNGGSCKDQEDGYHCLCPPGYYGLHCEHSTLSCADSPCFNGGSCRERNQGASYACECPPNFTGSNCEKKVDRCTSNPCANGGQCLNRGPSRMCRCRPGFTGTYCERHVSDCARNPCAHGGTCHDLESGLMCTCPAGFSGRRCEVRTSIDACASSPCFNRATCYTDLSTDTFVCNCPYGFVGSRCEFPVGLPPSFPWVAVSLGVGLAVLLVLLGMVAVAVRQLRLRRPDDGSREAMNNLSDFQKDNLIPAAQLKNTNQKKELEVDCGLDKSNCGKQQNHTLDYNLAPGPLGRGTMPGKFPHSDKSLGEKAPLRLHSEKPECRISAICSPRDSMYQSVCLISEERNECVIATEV
The test can be described thus: FACS titration on HEK293-cDLL4 cells. The protocol: (§3) In order to determine the cynomologus cross-reactivity of the VHHs, a FACS binding experiment is performed. Cynomolgus DII4 expressing HEK293 cells (transient or stable transfection) are used for a titration binding experiment of the VHHs. After a 30 minutes incubation on ice, all samples are washed and detection is performed by applying anti-c-myc-Alexa647 (Santa Cruz Biotechnology, Santa Cruz, Calif., USA). Human and mouse DII4 overexpressing HEK293 cells are taken as reference. The mean MCF value is determined on the FACS Array and used for calculation of the EC₅₀ value (see FIG. 9).

For test [10], the target named is T5, human DLL4, full length, overexpressed …. The test is described as follows: FACS titration on HEK293-hDLL4 cells. The procedure: as §3
Test [11] deals with T7, recombinant human DLL4 extracellular domain, C-terminally His-tagged (R&D Systems) (human, UniProt Q9NR61 25-522, biotinylated in the competition assays (sites not given)).
T7 construct: also called rhDLL4; hDLL4; not shown: C-terminal His tag
T7 sequence (Q9NR61 25-522): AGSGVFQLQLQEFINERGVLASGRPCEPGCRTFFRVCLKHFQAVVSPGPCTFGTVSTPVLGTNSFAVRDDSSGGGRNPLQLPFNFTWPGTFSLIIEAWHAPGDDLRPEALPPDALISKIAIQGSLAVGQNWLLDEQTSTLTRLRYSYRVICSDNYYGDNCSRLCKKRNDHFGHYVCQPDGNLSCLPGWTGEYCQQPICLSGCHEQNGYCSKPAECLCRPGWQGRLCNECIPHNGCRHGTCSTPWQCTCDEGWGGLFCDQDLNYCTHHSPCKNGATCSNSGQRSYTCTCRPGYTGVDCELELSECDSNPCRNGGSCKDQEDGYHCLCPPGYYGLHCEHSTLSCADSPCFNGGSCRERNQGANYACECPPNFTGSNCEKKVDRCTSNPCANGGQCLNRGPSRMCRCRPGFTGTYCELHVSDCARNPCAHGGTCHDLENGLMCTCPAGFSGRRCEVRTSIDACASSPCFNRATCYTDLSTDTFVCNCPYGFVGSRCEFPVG
The test is described as follows: binding ELISA on coated rhDLL4.

In test [12] the target is T8, recombinant mouse DLL4 extracellular domain, C-terminally His-tagged (R&D Systems) (mouse, UniProt Q9JI71 27-525).
T8 construct: range 1-525; also called rmDLL4; mDLL4; not shown: C-terminal His tag
T8 sequence (Q9JI71 27-525 limits assumed): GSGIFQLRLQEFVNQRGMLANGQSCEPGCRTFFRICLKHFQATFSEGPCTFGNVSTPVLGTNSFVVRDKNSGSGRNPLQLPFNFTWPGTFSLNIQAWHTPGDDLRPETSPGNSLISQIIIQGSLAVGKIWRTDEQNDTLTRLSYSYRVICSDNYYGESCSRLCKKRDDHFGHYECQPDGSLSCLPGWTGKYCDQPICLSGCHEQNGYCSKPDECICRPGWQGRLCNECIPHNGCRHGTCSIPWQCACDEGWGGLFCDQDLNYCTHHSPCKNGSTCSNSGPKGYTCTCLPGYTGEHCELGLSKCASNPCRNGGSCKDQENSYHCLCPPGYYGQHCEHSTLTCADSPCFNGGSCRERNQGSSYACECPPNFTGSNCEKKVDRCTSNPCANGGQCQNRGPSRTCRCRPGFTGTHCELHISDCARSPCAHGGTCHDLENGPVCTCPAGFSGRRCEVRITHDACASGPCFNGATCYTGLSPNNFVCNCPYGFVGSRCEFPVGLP
The test can be described thus: binding ELISA on coated rmDLL4. The procedure: In order to determine cross-reactivity to mouse DII4 a binding ELISA is performed. […] Wells are blocked with a casein solution (1% in PBS). VHHs are applied as dilution series and binding is detected using a mouse anti-myc (Roche) and an anti-mouse-AP conjugate (Sigma, St Louis, Mo., USA) (FIG. 7).

Test [13] addresses T9, recombinant human Jagged-1 (Alexis) (human, UniProt P78504 34-1067, limits assumed).
T9 construct: also called hJagged-1; hJAG1
The test is described as follows: rhDLL1/rhJAG1 binding ELISA.

In test [14] the target is T10, recombinant human DLL1 (Alexis) (human, UniProt O00548 18-545, limits assumed).
T10 construct: also called hDLL1; rhDLL1
T10 sequence (looked up): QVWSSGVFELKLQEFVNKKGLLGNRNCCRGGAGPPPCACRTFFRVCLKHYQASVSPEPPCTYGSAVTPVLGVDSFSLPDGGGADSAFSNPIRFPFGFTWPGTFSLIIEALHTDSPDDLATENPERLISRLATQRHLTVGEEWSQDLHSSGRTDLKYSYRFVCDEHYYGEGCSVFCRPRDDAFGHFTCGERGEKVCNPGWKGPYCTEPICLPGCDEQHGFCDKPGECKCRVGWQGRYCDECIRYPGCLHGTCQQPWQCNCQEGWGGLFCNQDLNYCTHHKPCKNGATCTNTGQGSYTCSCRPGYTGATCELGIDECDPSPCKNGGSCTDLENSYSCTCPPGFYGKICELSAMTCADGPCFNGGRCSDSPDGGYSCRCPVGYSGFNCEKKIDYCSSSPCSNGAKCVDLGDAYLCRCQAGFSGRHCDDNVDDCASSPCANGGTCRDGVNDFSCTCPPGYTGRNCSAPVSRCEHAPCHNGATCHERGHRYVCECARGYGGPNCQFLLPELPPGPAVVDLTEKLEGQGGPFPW
The test is described as follows: rhDLL1/rhJAG1 binding ELISA.

Test [15] deals with T3, mouse Ang2. The test can be described thus: competition ELISA mAng2/mTie2. The protocol:
as §1

B1: 00042 (VHH)
VHH: EVQLVESGGGLVQPGGSLRLSCAASGFTLDDYAIGWFRQAPGKEREGVSSIRDNDGSTYYADSVKGRFTISSDNSKNTVYLQMNSLRPEDTAVYYCAAVPAGRLRFGEQWYPLYEYDAWGQGTLVTVSS
For the molecule B1, the “IC50 (read off the curve)” value with human Ang2 [1] and with human Ang2 [2] was approximately 0.6 nM throughout.

B2: 00042 (VHH)
VHH: B1 VHH
On to B2, for which the “IC50 (read off the curve)” value in the test with cynomolgus Ang2 [3] is approximately 800 pM; with cynomolgus Ang2 [4], approximately 500 pM; in the test with mouse Ang2 [5] it was approximately 1000 pM; with mouse Ang2 [6] it was approximately 2 nM.

B3: 106H01 (VHH)
VHH: EVQLVESGGGLVQAGGSLRLSCAASGSTFSNYAMGWYRQAPGKQRELVVGISSDGSTHYADSAKGRFTISRDDAKNTVYLQMNSLKTEDTAVYYCYVPVKVAGLEYAYWGQGTQVTVSS
notes: also called DLLBII106H01
With B3, the binding result in [7] and in test [8] was “binds” in each case.

B4: DLLBII56C04 (VHH)
VHH: EVQLVESGGGLVQPGGSLRLSCTASGFTFDVYAIGWFRQAPGKEPEGISCISSSGSITYYADSVKGRFTTSRDSAKNTVYLQMNSLKPEDTAVYYCATPGIAACRGIHYWGQGTQVTVSS
notes: not shown: C-terminal c-myc and His6 tags
B4: the binding result in test [9] was “binds”. The “EC50 (read off the curve)” value in test [10] was approximately 5 nM.

B5: 78B04 (VHH)
VHH: EVQLVESGGGLVQAGGSLRLSCAASGRTFSNYIMGWFRQAPGKEREFVAGISRYGDYTYYADSVKGRFTISRDNVKNTVYLRMNSLKPDDTAVYYCAANEGYCSGYGCYEDSGQYDYWGQGTQVTVSS
notes: also called DLLBII78B04
With B5, the binding result in [7] is listed as “binds”.

B6: 00045 (VHH)
VHH: EVQLVESGGGLVQPGGSLRLSCAASGFALDYYAIGWFRQAPGKEREGVSCISSSDGITYYADSVKGRFTISRDNSKNTVYLQMNSLRPEDTAVYYCATDSGGYIDYDCMGLGYDYWGQGTLVTVSS
B6: the “IC50 (read off the curve)” value with cynomolgus Ang2 [4] and with mouse Ang2 [5] was approximately 200 pM each time.

B7: DLLBII133A09 (VHH)
VHH: EVQLVESGGGLVQPGGSLRLSCAASGFTFGSYDMSWVRRSPGKGPEWVSAINSGGGSTYYADYVKGRFTISRDNAKNTLYLQMNSLKPEDTAVYYCAADRYIWARQGEYWGAYAYDYWGQGTQVTVSS
notes: as for B4
Consider B7, for which the “EC50 (read off the curve)” value in test [11] was approximately 700 pM; in test [12] it was approximately 900 pM. Moreover, the binding result in test [13] and in test [14] was “no binding” throughout.

B8: 00050 (VHH)
VHH: EVQLVESGGGLVQPGGSLRLSCAASGFTFDDYALGWFRQAPGKEREGVSCIRCSDGSTYYADSVKGRFTISSDNSKNTVYLQMNSLRPEDTAVYYCAASIVPRSKLEPYEYDAWGQGTLVTVSS
As for B8, the “IC50 (read off the curve)” value is approximately 9 nM with mouse Ang2 [15], approximately 6 nM in the test with human Ang2 [1] and approximately 6 nM in the test with human Ang2 [2].

As a reminder, the EC50 (read off the curve) is the concentration at which the effect is half-maximal.

The values are drawn from patent publication US20130078247A1 (Boehringer Ingelheim, published 2013).
